T1: cynomolgus monkey CCL21 (cynomolgus monkey, UniProt Q8HYP5 24-131 (rhesus entry))
T1 sequence: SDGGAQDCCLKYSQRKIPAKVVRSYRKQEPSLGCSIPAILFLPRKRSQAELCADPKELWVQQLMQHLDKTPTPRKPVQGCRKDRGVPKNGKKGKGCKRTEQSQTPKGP

T2: human CCL21 (human, UniProt O00585 24-134)
T2 sequence: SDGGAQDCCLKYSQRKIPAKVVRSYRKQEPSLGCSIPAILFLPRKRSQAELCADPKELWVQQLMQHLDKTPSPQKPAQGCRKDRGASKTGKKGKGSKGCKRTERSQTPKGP

T3: natural human CCL21 (secreted and isolated from transfected HEK-293T cells) (human, UniProt O00585 24-134)
T3 sequence: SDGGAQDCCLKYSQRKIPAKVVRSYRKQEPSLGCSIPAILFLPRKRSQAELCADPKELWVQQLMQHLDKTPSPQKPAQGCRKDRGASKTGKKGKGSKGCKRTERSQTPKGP

B1: MOR08382_g3-23_gL6 (antibody, human IgG1, kappa, V domains shown)
VH: EVQLLESGGGLVQPGGSLRLSCAASGFTFSSYWLNWVRQAPGKGLEWVSYISNQGDDTSYADSVKGRFTISRDNSKNTLYLQMNSLRAEDTAVYYCARDYQYIGDSFDIWGQGTLVTVSS
VL: EIVLTQSPATLSLSPGERATLSCRASQYVSYVSLAWYQQKPGQAPRLLIYDASNRATGIPARFSGSGSGTDFTLTISSLEPEDFAVYYCQQYDDLSYTFGQGTKVEIKR
B2: MOR06935_g3-23_g3j (antibody, V domains shown)
VH: EVQLLESGGGLVQPGGSLRLSCAASGFTFNSYSMSWVRQAPGKGLEWVSAISMEGYSKSYADSVKGRFTISRDNSKNTLYLQMNSLRAEDTAVYYCARGYGYYFDVWGQGTLVTVSS
VL: SYELTQPLSVSVALGQTARITCGGDSIGSQYASWYQQKPGQAPVLVIYDDNERPSGIPERFSGSNSGNTATLTISRAQAGDEADYYCGSWDSNPTHVFGGGTKLTVLG
notes: also called QBP359; FW repaired germlined MOR06935
B3: MOR08389_g3-23_g3j (antibody, human IgG1, lambda, V domains shown)
VH: EVQLLESGGGLVQPGGSLRLSCAASGFTFNSYSMSWVRQAPGKGLEWVSAISMEGYSKSYADSVKGRFTISRDNSKNTLYLQMNSLRAEDTAVYYCARGYGYYFDVWGQGTLVTVSS
VL: SYELTQPLSVSVALGQTARITCGGDSIGSQYASWYQQKPGQAPVLVIYDDNERPSGIPERFSGSNSGNTATLTISRAQAGDEADYYCSSWDMDAVNVFGGGTKLTVLG
B4: MOR08378_g5-51_g2a2 (antibody, human IgG1, lambda, V domains shown)
VH: EVQLVQSGAEVKKPGESLKISCKGSGYSFNNYWISWVRQMPGKGLEWMGIIDPTNSQTTYSPSFQGQVTISADKSISTAYLQWSSLKASDTAMYYCARDGYPIFDYWGQGTLVTVSS
VL: QSALTQPASVSGSPGQSITISCTGTSSDLGGYNYVSWYQQHPGKAPKLMIYDVNYRPSGVSNRFSGSKSGNTASLTISGLQAEDEADYYCSSYTYYSNSGVFGGGTKLTVLG

How the values were obtained:
cynomolgus monkey CCL21 [1] = biological target: T1, cynomolgus monkey CCL21; test: cell-based or functional assay
human CCL21 [2] = biological target: T2, human CCL21; test: cell-based or functional assay
[3] = biological target: T3, natural human CCL21 (secreted and …); test: cell-based or functional assay
cynomolgus monkey CCL21 [4] = biological target: T1, cynomolgus monkey CCL21; test: SPR (Biacore T100), antibody captured on protein A, CCL21 as analyte, 1:1 model, two experiments
[5] = biological target: CCL21 of the four chemotaxis assays (recombinant human, recombinant cynomolgus monkey, natural human); test: cell-based or functional assay
human CCL21 [6] = biological target: T2, human CCL21; test: SPR (Biacore T100), antibody captured on protein A, CCL21 as analyte, 1:1 model, three experiments

Row | Binder | % inhibition of migration, recombinant cCCL21, H9 cells, 1:1 molar ratio (3rd cell) (cynomolgus monkey CCL21 [1]) [%] | % inhibition of migration, recombinant cCCL21, H9 cells, IgG at 2uM (3rd cell) (cynomolgus monkey CCL21 [1]) [%] | % inhibition of migration, recombinant hCCL21, H9 cells, 1:1 molar ratio (1st cell) (human CCL21 [2]) [%] | % inhibition of migration, recombinant hCCL21, H9 cells, IgG at 2uM (1st cell) (human CCL21 [2]) [%] | % inhibition of migration, recombinant hCCL21, primary human T cells, 1:1 molar ratio (2nd cell) (human CCL21 [2]) [%] | % inhibition of migration, recombinant hCCL21, primary human T cells, IgG at 2uM (2nd cell) (human CCL21 [2]) [%] | IC50, inhibition of recombinant hCCL21-mediated migration of H9 cells (human CCL21 [2]) [nM] | % inhibition of migration, natural hCCL21, H9 cells, 1:1 molar ratio (4th cell) [3] [%] | % inhibition of migration, natural hCCL21, H9 cells, IgG at 2uM (4th cell) [3] [%] | IC50, inhibition of natural hCCL21-mediated migration of H9 cells [3] [nM] | Kd (cynomolgus monkey CCL21 [4]) [nM] | kon (cynomolgus monkey CCL21 [4]) [M⁻¹ s⁻¹] | IC50, inhibition of CCL21-mediated calcium mobilization, cynomolgus monkey CCL21 on CHO-K1 cells with cynomolgus monkey CCR7 (cynomolgus monkey CCL21 [1]) [nM] | IC50, inhibition of CCL21-mediated calcium mobilization, cynomolgus monkey CCL21 on CHO-K1 cells with human CCR7 (cynomolgus monkey CCL21 [1]) [nM] | IC50, inhibition of CCL21-mediated calcium mobilization, human CCL21 on CHO-K1 cells with cynomolgus monkey CCR7 (human CCL21 [2]) [nM] | IC50, inhibition of CCL21-mediated calcium mobilization, human CCL21 on CHO-K1 cells with human CCR7 (human CCL21 [2]) [nM] | % inhibition of CCL21 mediated chemotaxis at 1:1 molar ratio, large scale batch, four assays [5] [%] | IC50, inhibition of CCL21 mediated chemotaxis, large scale batch, four assays [5] [nM] | Kd (human CCL21 [6]) [nM] | kon (human CCL21 [6]) [M⁻¹ s⁻¹]
1 | B1 | 100 | 100 | 97 | 97 | 100 | 100 | 23.7 | 70 | 100 | 66 | – | – | – | – | – | – | – | – | – | –
2 | B2 | 96 | 100 | 61 | 100 | 86 | 100 | – | 77 | 100 | – | 0.026 | 9.1e+07 | 62 | 211 | 252 | 341 | 81 to 100 | 11 to 45 | 0.03 | 6.8e+07
3 | B3 | 100 | 100 | 94 | 94 | 100 | 100 | 54.1 | 82 | 100 | 34 | – | – | – | – | – | – | – | – | – | –
4 | B4 | 100 | 100 | 87 | 100 | 100 | 100 | 49.7 | 64 | 100 | 69 | – | – | – | – | – | – | – | – | – | –
